{
  "source": "the nanobody polyreactivity screen of Harvey et al. (2022)",
  "data": [
    {"experiment": "yeast display, Sf9 membrane polyspecificity reagent, FACS + sequencing; frameworks hold sequencing errors", "how_it_was_run": "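Using colony PCR, genes from sorted yeast display clones were amplified, then sequenced on MiSeq at 2 × 250 and filtered by CDR length. The clones had been stained with 10% biotinylated, detergent-solubilized Sf9 membrane reagent for 1 hour at 4 °C and sorted by FACS into low and high (top ~1%) gates on anti-HA and streptavidin fluorescence. Polyreactivity labels come from the gate of origin.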", "values": [
      {"sequence": "QVQLVESGGGLVQAGGSLRLSCAASGSTFSFYAMGWYRQAPGKERELVAAISWSDGSTYYADSVKGRFTISRDNAKNTVYLQMNSLKPEDTAVYYCAARRLAYIFYTVGYDYWGQGTQVTVSS", "polyreactivity (PSR sort gate)": "low polyreactivity"},
      {"sequence": "QVQLVESGGGLVQAGGSLRLSCAASGRIFTQYAMGWYRQAPGKERELVAAINASDGSTYADSVKGRFTISRDNAKNTVYLQMNSLKPEDSAVYFCYVTGGPYDFTRWSEFDHWGQGTQVTVSS", "polyreactivity (PSR sort gate)": "low polyreactivity"},
      {"sequence": "QVQLVESGGGLVQAGGSLRLSCAASGITFTPNAMGWYRQAPGKEREFVAAITYSGGSTYYADSVKGRFTISRDNAKNTVYLQMNSLKPEDTAVYYCAADSFAWWGSRYDYWGQGTQVTVSS", "polyreactivity (PSR sort gate)": "low polyreactivity"},
      {"sequence": "QVQLVESGGGLVQAGGSLRLSCAASGLTFGYYAMGWYRQAPGKERELVAVISGGGGTHYADSVKGRFTISRDNAKNTVYLQMNSLKPEDTAVYYCAAYTYRRYDYWGQGTQVTVSS", "polyreactivity (PSR sort gate)": "high polyreactivity"},
      {"sequence": "QDQLVESGGGLVQAGGSLRLSCAASGGIFFIYVMGWYRQAPGKERELVAAISGSGGTTYYADSVKGRFTISRDNAKNTVYLQMNSLKPEDTAVFYCNRVSDYTLYYWGQGTQVTVSS", "polyreactivity (PSR sort gate)": "low polyreactivity"},
      {"sequence": "QVQLVESGGGLVQAGGSLRLSCAASGRTFGQYAMGWSRQAPGKERELVAAISARGASTYYADSVKGRFTISRDTAKNTVYLQMNSLKPEDTAVYYCNKYGRTSSTPLFYYWGQGTQVTVSS", "polyreactivity (PSR sort gate)": "high polyreactivity"},
      {"sequence": "QVQLVESGGGLVQAGGSLRLSCAASGFTFTRYAMGWYRQAPGKERELVAAISRSGTSTYYADSVKGRFTISRDNAKNTVYLQMNSLKPEDTAVYYCAAYFGTTGRYALYDYWGQGTQVTVSS", "polyreactivity (PSR sort gate)": "high polyreactivity"},
      {"sequence": "QVQLVESGGGLFQAGGRLRLSCAPSGFNFGGYVMGWYRQAPGKDRELVAAISSSGGITHYADSVKGRFTISRDNANNTVYLQMNSLKPEDTEVYYCNALYRKRYYWGQGTQVTVSS", "polyreactivity (PSR sort gate)": "high polyreactivity"},
      {"sequence": "QVLLVESGGGLVQAGGSLRLSCAASGSTFFFNAMGSSRQAPGKEWELVATISRDGSTNYADSVKGRFTISRDNAKNTVYLQMNSLKPEDTAVYYCAAGWGWPYHQYDYWGQGTQVTVSS", "polyreactivity (PSR sort gate)": "low polyreactivity"},
      {"sequence": "QVQLVESGGGLVQAGGSLRLSCAASGRTFRYNALGWYRQAPGTERELVAAISRGTITNYAASVKGRFTISRDNAKNPVYFQLTSLKPEDTAVYYCNAGWGVVIRRYPTYHYWGQGTQVTVSS", "polyreactivity (PSR sort gate)": "high polyreactivity"},
      {"sequence": "QVQLVESGGGLVQAGGSLRLRCAASGRIFRIYPMGWYRQAPGKERELVARITYSGGSTYYADSVKGRFTISRDNAKNTVYLQMNSLKPEDTAVYYCAADWLGYQYGYWGQGTQVTVSS", "polyreactivity (PSR sort gate)": "low polyreactivity"},
      {"sequence": "QVQLVESGGGLVQAGGSLRLSCAASGYIFENYALGWYRQAPGKERELVAALSTRGGSTYYADSVKGRFTISRDNAKNTVYLQMNSLKPEDTAVYYCAAADSTGYYYWGQGTQVTVSS", "polyreactivity (PSR sort gate)": "high polyreactivity"},
      {"sequence": "QVQLVESGGGLVQAGGSLRLSCAASGRIFKRNTMGWYRQAPGKEMELVAAITYSGITYYADSVKGRFTISRDNAKNTVYLQMNSLKPEDTAVYYCAKVLYPIGSPRFEFWGQGTQVTVSS", "polyreactivity (PSR sort gate)": "low polyreactivity"},
      {"sequence": "QVQLVESGGGLVQAGGSLRLSCAASGRIFYTNAMGWYRQAPGKERELVATISSSGGRTYLRNSVKGRFTLSRDNAKNTVYLQMNSLKPEDTAVDYCAAGWSYPVRNIYYYWGQGTQVTVSS", "polyreactivity (PSR sort gate)": "high polyreactivity"},
      {"sequence": "QVQLVESGGGLVQAGGSLRLSCAASGFTLKSYAMGWYRQAPGKERELVASISRRGGSTYYADSVKGRFTISRDNAKNTVYLQMNSLKPEDTAVYYCNADYVRFPGNAYDYWGQGTQVTVSS", "polyreactivity (PSR sort gate)": "high polyreactivity"},
      {"sequence": "QVQLVESGGGLVQAGGSLRLSCTASGRIFTRNAMGWYRQAPGKERELVASISRTGTSTYYADSVKGRFTISRDNEKNNVYLQMNSLKPEDTAVYYFNARRTSVRFDYWGQGTQVTVSS", "polyreactivity (PSR sort gate)": "high polyreactivity"},
      {"sequence": "QVQLVESGGGLVQAGGSLRLSCAASGSTFGTYAMGWYRQEPGKERELVAAIRWSGVSTYYADSVKGRFTISRDNAKNTVYLQMNSLKPEDTAVYYCAVALWVRGTYIYEYWGQGTQVTVSS", "polyreactivity (PSR sort gate)": "high polyreactivity"}
    ]}
  ]
}
